Measured values published in patent US9075059B2, “Compositions and methods for detecting plectin-1 as a biomarker for cancer” (University of Virginia Patent Foundation, priority 2009, dated 2015).
One block for each molecule: values may come before it. Non-standard residues stand in square brackets, D forms with d. No end group written: not given here. *: point of attachment. DOTA = O=C(O)CN1CCN(CC(=O)O)CCN(CC(=O)*)CCN(CC(=O)O)CC1; βAla = NCCC(=O)O

Assays:
[1] = system: tumors from orthotopically implanted L3.6 cells; assay: SPECT/CT in vivo imaging of orthotopic PDAC; conditions: labeled peptide
Procedure: Anesthesia (1%-2% isoflurane in oxygen) was delivered throughout the imaging. CT acquisition used 200 evenly spaced projections spanning 200 degrees over approximately 5 minutes. Mice are repositioned axially for pinhole SPECT scanning 60 evenly spaced projection views were obtained over 180 degrees using two gamma cameras simultaneously. The acquisition time was approximately 30 minutes. The two cameras were fitted with 1 mm diameter tungsten pinholes. […] The reconstructed SPECT voxel size was 0.65×0.65×0.65 mm on a 60×60×60 image matrix. All SPECT images were corrected for radioactivity decay but not for gamma ray attenuation.

Plectin-1 [2] = target: T1, Plectin-1 (Homo sapiens, UniProt Q15149); assay: Affinity of tetrameric versus monomeric plectin-1 targeted peptide; format: binding; set-up: L3.6 cells were plated on a 96 well plate and incubated with 111In-tPTP and increasing log concentrations of tPTP or scrambled tetramer; endogenous in cells; host or cells: L3.6 pancreatic cancer cells
T1 sequence (Q15149 whole entry): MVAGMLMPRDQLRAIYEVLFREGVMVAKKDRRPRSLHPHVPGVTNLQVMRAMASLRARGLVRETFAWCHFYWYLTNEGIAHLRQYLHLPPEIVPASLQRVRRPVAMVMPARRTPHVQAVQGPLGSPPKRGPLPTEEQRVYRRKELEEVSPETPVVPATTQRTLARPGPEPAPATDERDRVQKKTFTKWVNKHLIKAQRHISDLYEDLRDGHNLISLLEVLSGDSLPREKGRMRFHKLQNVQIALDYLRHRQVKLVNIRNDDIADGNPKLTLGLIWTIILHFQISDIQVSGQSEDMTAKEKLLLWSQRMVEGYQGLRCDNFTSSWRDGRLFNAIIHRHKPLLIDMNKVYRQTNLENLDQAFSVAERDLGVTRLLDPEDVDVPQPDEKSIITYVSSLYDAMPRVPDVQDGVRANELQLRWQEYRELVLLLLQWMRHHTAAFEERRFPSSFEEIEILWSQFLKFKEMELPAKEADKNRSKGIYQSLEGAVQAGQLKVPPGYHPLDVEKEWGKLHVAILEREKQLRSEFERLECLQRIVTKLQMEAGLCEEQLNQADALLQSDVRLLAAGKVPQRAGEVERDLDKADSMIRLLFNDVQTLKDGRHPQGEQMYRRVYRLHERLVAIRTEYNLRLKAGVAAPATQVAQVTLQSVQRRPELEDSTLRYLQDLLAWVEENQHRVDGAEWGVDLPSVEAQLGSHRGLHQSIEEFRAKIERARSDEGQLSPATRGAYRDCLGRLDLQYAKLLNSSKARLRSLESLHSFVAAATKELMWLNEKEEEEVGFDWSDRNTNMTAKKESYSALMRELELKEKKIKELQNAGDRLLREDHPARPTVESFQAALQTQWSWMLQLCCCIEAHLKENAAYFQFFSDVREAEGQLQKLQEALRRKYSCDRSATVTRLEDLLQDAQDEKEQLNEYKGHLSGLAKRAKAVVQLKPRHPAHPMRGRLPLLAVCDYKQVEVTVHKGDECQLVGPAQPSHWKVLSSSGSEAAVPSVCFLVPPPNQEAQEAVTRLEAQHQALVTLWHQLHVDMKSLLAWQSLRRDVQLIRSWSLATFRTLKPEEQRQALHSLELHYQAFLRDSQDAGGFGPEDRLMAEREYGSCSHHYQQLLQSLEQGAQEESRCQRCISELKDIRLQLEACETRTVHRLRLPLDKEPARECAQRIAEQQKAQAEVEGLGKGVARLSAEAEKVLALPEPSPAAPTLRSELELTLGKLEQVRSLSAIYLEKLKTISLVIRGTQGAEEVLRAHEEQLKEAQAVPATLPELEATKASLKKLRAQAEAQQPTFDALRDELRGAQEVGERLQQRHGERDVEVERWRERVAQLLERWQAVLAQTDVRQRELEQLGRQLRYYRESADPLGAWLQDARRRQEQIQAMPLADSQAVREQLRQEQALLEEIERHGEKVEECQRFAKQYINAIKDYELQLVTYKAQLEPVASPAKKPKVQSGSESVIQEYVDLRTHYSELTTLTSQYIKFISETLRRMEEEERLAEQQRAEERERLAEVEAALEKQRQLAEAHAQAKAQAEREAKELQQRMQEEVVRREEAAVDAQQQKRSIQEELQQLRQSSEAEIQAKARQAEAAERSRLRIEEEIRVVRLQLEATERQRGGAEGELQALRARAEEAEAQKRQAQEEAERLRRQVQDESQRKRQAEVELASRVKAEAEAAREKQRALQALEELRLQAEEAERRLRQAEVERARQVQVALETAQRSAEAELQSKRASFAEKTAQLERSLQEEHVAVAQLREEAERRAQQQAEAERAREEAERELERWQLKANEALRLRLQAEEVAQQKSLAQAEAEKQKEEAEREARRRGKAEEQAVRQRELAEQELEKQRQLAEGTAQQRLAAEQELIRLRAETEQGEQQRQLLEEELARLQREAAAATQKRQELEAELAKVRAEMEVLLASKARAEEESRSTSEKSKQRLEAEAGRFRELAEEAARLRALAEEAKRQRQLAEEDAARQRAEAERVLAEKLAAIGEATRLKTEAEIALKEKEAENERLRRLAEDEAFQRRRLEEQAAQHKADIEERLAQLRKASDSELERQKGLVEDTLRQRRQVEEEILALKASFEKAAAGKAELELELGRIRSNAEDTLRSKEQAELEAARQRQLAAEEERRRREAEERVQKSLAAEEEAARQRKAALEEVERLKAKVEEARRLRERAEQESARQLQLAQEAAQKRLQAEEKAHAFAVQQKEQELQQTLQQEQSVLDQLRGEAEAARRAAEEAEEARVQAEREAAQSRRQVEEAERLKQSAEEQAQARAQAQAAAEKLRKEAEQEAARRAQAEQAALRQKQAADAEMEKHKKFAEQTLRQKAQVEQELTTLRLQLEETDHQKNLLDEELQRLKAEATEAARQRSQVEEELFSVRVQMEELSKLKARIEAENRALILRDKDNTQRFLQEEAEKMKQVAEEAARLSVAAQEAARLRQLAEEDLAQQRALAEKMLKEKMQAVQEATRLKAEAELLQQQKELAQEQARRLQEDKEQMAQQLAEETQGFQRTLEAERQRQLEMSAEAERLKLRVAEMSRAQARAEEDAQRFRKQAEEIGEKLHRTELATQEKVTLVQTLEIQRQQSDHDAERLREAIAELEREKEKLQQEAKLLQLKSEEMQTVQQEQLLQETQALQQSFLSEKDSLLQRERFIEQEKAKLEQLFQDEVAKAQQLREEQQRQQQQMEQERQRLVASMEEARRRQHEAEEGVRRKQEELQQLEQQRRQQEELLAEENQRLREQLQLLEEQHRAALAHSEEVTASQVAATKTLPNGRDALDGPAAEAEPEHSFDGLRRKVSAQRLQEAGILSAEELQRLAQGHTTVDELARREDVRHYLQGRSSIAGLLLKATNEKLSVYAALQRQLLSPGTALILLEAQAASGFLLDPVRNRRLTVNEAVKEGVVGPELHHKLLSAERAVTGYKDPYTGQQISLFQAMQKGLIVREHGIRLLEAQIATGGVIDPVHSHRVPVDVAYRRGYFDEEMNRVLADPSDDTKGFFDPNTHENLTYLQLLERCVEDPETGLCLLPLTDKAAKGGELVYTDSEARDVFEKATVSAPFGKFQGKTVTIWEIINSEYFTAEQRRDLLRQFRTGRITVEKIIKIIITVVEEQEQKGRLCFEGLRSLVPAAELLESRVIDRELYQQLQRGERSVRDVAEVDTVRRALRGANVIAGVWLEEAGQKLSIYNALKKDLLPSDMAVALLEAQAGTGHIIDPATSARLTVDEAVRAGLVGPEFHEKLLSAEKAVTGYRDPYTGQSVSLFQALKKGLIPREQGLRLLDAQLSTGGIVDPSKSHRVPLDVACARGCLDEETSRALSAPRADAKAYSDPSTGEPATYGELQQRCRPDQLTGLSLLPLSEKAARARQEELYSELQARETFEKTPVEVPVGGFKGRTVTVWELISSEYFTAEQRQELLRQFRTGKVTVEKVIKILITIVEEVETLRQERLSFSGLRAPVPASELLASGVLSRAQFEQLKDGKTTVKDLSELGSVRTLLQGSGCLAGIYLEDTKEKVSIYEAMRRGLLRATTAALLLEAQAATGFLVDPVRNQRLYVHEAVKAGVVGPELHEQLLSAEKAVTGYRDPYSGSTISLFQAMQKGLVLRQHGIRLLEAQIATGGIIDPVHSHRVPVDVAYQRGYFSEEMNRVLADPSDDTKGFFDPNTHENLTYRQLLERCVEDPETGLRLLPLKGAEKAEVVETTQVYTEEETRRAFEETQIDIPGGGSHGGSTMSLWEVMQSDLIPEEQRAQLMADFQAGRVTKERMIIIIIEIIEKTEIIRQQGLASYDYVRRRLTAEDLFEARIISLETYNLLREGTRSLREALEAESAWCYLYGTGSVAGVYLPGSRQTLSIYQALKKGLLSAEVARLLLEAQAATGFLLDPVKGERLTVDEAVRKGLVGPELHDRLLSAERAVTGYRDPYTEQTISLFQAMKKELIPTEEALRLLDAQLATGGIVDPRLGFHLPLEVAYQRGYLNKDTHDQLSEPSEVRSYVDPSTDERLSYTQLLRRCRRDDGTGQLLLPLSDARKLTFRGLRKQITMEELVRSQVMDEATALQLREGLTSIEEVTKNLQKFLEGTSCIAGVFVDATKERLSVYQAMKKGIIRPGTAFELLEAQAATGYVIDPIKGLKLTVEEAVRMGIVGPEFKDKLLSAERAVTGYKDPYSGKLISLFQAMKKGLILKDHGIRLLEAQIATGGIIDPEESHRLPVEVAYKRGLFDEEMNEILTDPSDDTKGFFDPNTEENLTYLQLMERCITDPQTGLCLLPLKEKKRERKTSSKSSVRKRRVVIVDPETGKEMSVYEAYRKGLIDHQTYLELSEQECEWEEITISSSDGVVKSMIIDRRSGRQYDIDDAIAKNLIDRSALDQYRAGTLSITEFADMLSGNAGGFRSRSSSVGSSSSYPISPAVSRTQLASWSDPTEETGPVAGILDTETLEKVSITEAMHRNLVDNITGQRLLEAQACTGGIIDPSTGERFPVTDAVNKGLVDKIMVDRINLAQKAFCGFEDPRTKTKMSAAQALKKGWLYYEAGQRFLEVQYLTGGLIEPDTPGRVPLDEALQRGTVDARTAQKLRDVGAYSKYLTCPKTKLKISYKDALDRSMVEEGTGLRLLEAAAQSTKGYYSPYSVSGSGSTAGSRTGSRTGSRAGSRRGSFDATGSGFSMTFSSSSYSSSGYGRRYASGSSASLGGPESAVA

Plectin-1 [3] = target: T1, Plectin-1; assay: In vitro competition assay: 111In-tPTP versus unlabeled tPTP or ncPTP on L3.6 cells; format: binding; set-up: L3.6 cells were plated on a 96 well plate and incubated with 111In-tPTP and increasing log concentrations of tPTP or scrambled tetramer; endogenous in cells; host or cells: L3.6 pancreatic cancer cells; conditions: competition with 111In-labeled tPTP, 1 hr room temperature, read-out: Ki (inhibition dissociation constant)
Plectin-1 [4] = target: T1, Plectin-1; assay: competition with 111In-tPTP on L3.6 cells, gamma counting

Molecule: KTLLPTP [monomeric peptide]
time before visualization [1]: 48 h | affinity (Plectin-1 [2]): 160 nmol

B1: ncPTP-4(β… (PEG5000))KKKDOTAβA-NH2 (peptide)
peptide: [βAla]KHVMSKQGGS-PEG5000
chain: Lys-Lys-Lys
modifications: not fully specified (some residues, C-terminus); also: tetramer: four arms joined via PEG5000 to lysine core, attachment lysines not given here
Ki (Plectin-1 [4]): 2.86 µM

Next, values leading:

Ki (Plectin-1 [3]): 2.86 µM
Molecule: ncPTP-4(βAKHVMSKQGGS (PEG5000))KKKDOTAβA-NH2 (peptide [βAla]KHVMSKQGGS; chain Lys-Lys-Lys(DOTA)-{βAla-NH2}; not fully specified (some residues, C-terminus); also: tetramer: four chain-1 arms on lysine core, each arm's Ser joined via PEG5000 to the lysine core)

Ki (Plectin-1 [4]): 0.83 µM
B2: tetrameric plectin-1 targeted peptide (tPTP) complex, (β…(PEG5000))4 KKKKDOTAβA-NH2 (peptide)
peptide: [βAla]KTLLPTPGGS-PEG5000
chain: KKKK(DOTA)-{βAla-NH2}
modifications: not fully specified (some residues); also: branched core [(arm)2-Lys]2-Lys-Lys(DOTA): four arms, C-terminal Ser of each joined through PEG5000 to an amino group of the core
